Experimental data: patent US20260242478A1 (published 2026)
Where no end group is shown, it is not given here.

B1: Phage-3187 (peptide, not shown: large carriers)
peptide: AAPMCIPAWMCHGF
notes: Clonal phage of the Peptide-180 library, tested as crude supernatant
B2: Phage-3192 (peptide, not shown: large carriers)
peptide: EVVMCRPLWMCSGF
notes: as for B1
B3: Phage-3189 (peptide, not shown: large carriers)
peptide: LEALCVPRWMCEGF
notes: as for B1
B4: Phage-3185 (peptide, not shown: large carriers)
peptide: IEKWCFPMWMCEGF
modifications: cysteine pairing not given here; also: fused to phage pIII, junction sequence not given here
notes: as for B1
B5: Phage-3188 (peptide, not shown: large carriers)
peptide: DMRVCKPEWMCTGL
notes: as for B1
B6: Phage-3190 (peptide, not shown: large carriers)
peptide: ADLRCVPEWMCMGI
notes: as for B1
B7: Phage-3193 (peptide, not shown: large carriers)
peptide: GEAVCIPRWMCDGF
notes: as for B1
B8: Phage-3191 (peptide, not shown: large carriers)
peptide: QHWQCVPRWMCDGF
notes: as for B1
B9: Phage-3186 (peptide, not shown: large carriers)
peptide: VSELCRPAWMCHGF
notes: as for B1
B10: Phage-3158 (peptide)
peptide: IVPYCMPQWMCSGF
modifications: cysteine pairing not given here; also: fused to phage pIII, orientation and linker not given here
B11: Phage-3157 (peptide)
peptide: QMPMCRPAWMCMGF
modifications: cysteine pairing not given here; also: fused to phage pIII, orientation and linker not given here
B12: Phage-3163 (peptide)
peptide: DIHLCTPNWMCSGF
modifications: cysteine pairing not given here; also: fused to phage pIII, fusion site not given here
B13: Phage-3162 (peptide)
peptide: ETALCRPLWMCDWL
modifications: cysteine pairing not given here; also: fused to phage pIII, fusion site not given here
B14: Phage-3159 (peptide)
peptide: WMAMCKPVWMCEGF
modifications: cysteine pairing not given here; also: fused to phage pIII, orientation and linker not given here
B15: Phage-3165 (peptide)
peptide: NVHYCVPAWMCNGF
modifications: cysteine pairing not given here; also: fused to phage pIII, fusion site not given here
B16: Phage-3166 (peptide)
peptide: LVRVCTPMWMCQGF
modifications: cysteine pairing not given here; also: fused to phage pIII, fusion site not given here
B17: Phage-3160 (peptide)
peptide: LALRCEPSWMCLGF
modifications: cysteine pairing not given here; also: fused to phage pIII, orientation and linker not given here
B18: Phage-3170 (peptide)
peptide: EVKFCKPAWMCTGF
modifications: cysteine pairing not given here; also: fused to phage pIII, fusion site not given here
B19: Phage-3164 (peptide)
peptide: MDKICSPMWMCLGF
modifications: cysteine pairing not given here; also: fused to phage pIII, fusion site not given here
B20: Phage-3161 (peptide)
peptide: NHVQCVPNWMCSGF
modifications: cysteine pairing not given here; also: fused to phage pIII, fusion site not given here
B21: Phage-3169 (peptide)
peptide: VEKLCKPEWMCMGF
modifications: cysteine pairing not given here; also: fused to phage pIII, fusion site not given here
B22: Phage-3167 (peptide)
peptide: TYPKCIPPWMCTGF
modifications: cysteine pairing not given here; also: fused to phage pIII, fusion site not given here
B23: Phage-3168 (peptide)
peptide: ADWLCRPAWMCEGL
modifications: cysteine pairing not given here; also: fused to phage pIII, fusion site not given here
B24: Phage-3174 (peptide)
peptide: VTAKCVPEWMCTGF
B25: Phage-3181 (peptide)
peptide: GVSMCIPAWMCQGF
B26: Phage-3179 (peptide)
peptide: YMMICRPAWMCSGL
B27: Phage-3182 (peptide)
peptide: IQILCTPTWMCVGF
B28: Phage-3180 (peptide)
peptide: HERECIPRWMCTGF
B29: Phage-3172 (peptide)
peptide: ANLLCIPNWMCSGF
B30: Phage-3177 (peptide)
peptide: YEPVCRPAWMCIGF
B31: Phage-3183 (peptide)
peptide: EGAICKPEWMCKGF
B32: Phage-3173 (peptide)
peptide: MDRMCVPEWMCYVF
B33: Phage-3171 (peptide)
peptide: GEVFCIPAWMCAGF
modifications: cysteine pairing not given here; also: fused to phage pIII, fusion site not given here
B34: Phage-3176 (peptide)
peptide: VTRMCVPEWMCSGI
B35: Phage-3184 (peptide)
peptide: MVRLCEPEWMCTGF
B36: Phage-3178 (peptide)
peptide: YEQACQPPWMCLGF
B37: Phage-3175 (peptide)
peptide: YPSMCKPLWMCQGF

biological target: T1, PSMA Fab (006 PSMA Fab); assay: clonal phage ELISA on biotinylated PSMA Fab captured on neutravidin, anti-M13-HRP detection;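 also: crude clonal phage supernatants added to wells preincubated with PSMA antigen in blocking buffer or with blocking buffer alone, brief binding period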
T1 construct: also called Anti-PSMA Fab; anti-PSMA Fab
Description: (§1) Clonal phage were harvested as crude supernatants and screened via standard ELISAs. […] Prior to the addition of clonal phage. wells were incubated with blocking buffer and PSMA antigen or blocking buffer alone. Without washing or aspirating, clonal phage supernatants were then added to the wells and incubated for a short time. Wells were then washed followed by detection of bound phage using a horse radish conjugated anti-M13 antibody.

| Binder | Phage binding ELISA signal, Anti-PSMA Fab |
| --- | --- |
| B1 | 2 |
| B2 | 2 |
| B3 | 2 |
| B4 | 2.01 |
| B5 | 2 |
| B6 | 2 |
| B7 | 1.99 |
| B8 | 2 |
| B9 | 2 |

biological target: T2, PSMA Fab; assay: clonal phage ELISA on captured PSMA Fab pre-incubated with PSMA antigen as competitor;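 also: crude clonal phage supernatants added to wells without washing away the PSMA competitor, bound phage detected by HRP-conjugated anti-M13 antibody, reference wells received blocking buffer only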
T2 construct: also called Anti-PSMA Fab; 006 PSMA Fab
Description: as §1

| Binder | Phage binding ELISA signal, Anti-PSMA Fab in presence of PSMA |
| --- | --- |
| B10 | 0.107 |
| B11 | 0.105 |
| B12 | 0.0738 |
| B13 | 0.0692 |
| B14 | 0.163 |
| B15 | 0.163 |
| B16 | 0.058 |
| B17 | 0.112 |
| B18 | 0.0863 |
| B19 | 0.0702 |
| B20 | 0.138 |
| B21 | 0.0909 |
| B22 | 0.115 |
| B23 | 0.0589 |

biological target: T1, PSMA Fab (006 PSMA Fab); assay: clonal phage ELISA on captured PSMA Fab, wells pre-incubated with PSMA antigen as competitor
Description: as §1

| Binder | Phage binding ELISA signal, Anti-PSMA Fab in presence of PSMA antigen |
| --- | --- |
| B1 | 0.137 |
| B2 | 0.0925 |
| B3 | 0.096 |
| B4 | 0.0806 |
| B5 | 0.109 |
| B6 | 0.0654 |
| B7 | 0.0937 |
| B8 | 0.103 |
| B9 | 0.082 |

biological target: T2, PSMA Fab; assay: clonal phage ELISA on biotinylated PSMA Fab captured on neutravidin, anti-M13 HRP detection;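 also: crude clonal phage supernatants added to wells pretreated with PSMA antigen in blocking buffer or with blocking buffer only, then briefly incubated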
Description: as §1

| Binder | Phage binding ELISA signal, Anti-PSMA Fab |
| --- | --- |
| B10 | 2.04 |
| B11 | 2.04 |
| B12 | 2.03 |
| B13 | 2.03 |
| B14 | 2.04 |
| B15 | 2.03 |
| B16 | 2.03 |
| B17 | 2.03 |
| B18 | 2.02 |
| B19 | 2.03 |
| B20 | 2.03 |
| B21 | 2.02 |
| B22 | 2.03 |
| B23 | 2.02 |

biological target: T3, PSMA Fab (006 PSMA Fab); assay: phage binding ELISA; PSMA Fab wells pre-incubated with PSMA antigen as competitor, anti-M13 HRP detection
T3 construct: also called Anti-PSMA Fab
Description: as §1

| Binder | Phage binding ELISA signal, Anti-PSMA Fab with PSMA antigen |
| --- | --- |
| B24 | 0.0968 |
| B25 | 0.0737 |
| B26 | 0.116 |
| B27 | 0.0781 |
| B28 | 0.065 |
| B29 | 0.0969 |
| B30 | 0.0622 |
| B31 | 0.0737 |
| B32 | 0.0741 |
| B33 | 0.107 |
| B34 | 0.0628 |
| B35 | 0.116 |
| B36 | 0.0671 |
| B37 | 0.111 |

biological target: T3, PSMA Fab (006 PSMA Fab); assay: phage binding ELISA; biotinylated PSMA Fab on neutravidin plate, clonal phage supernatant, anti-M13 HRP detection;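 also: wells were preincubated with blocking buffer either containing PSMA antigen or without it before crude phage supernatant was added, briefly incubated, then washed prior to detection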
Description: as §1

| Binder | Phage binding ELISA signal, Anti-PSMA Fab |
| --- | --- |
| B24 | 2.02 |
| B25 | 2.01 |
| B26 | 2.01 |
| B27 | 2.01 |
| B28 | 2.01 |
| B29 | 2.02 |
| B30 | 2.02 |
| B31 | 2.01 |
| B32 | 2.02 |
| B33 | 2.02 |
| B34 | 2.02 |
| B35 | 2.01 |
| B36 | 2.02 |
| B37 | 2.02 |
